Here are results for 68 sequences from patent US20210317456.

Where only a bound is given, the exact number is not on record here.

One data set has as its system Immunoglobulin G (total IgG) (Homo sapiens). The experiment in a line: filter. As to conditions: n (P) = 2NapdU; SB18, 5 mM MgCl2, 37 C.
“ACTCCACATCCAAGACTGCGGTTACCTTGTAGGCGATTATGGGCAG [5334-8_5]”: the Kd (usually the constant that tells how readily two partners part at equilibrium) was found to be 5.92 nM.

Take “ACTGCGGTTACCTTGTAGGCGATTATGGGCAG [5334-8_22]”: the dissociation constant Kd is 5.77 nM.

In turn, “AGACTGCGGTTACCTTGTAGGCGATTATGGGCA [5334-8_28]” gave a Kd of 8.45 nM.

Staying with this data set, now noted: n (P) = 2NapdU; considered no binding.
Sequence AGACTGCGGTTACCTTGTAGGCGATT [5334-8_33] registered a Kd of over 1000 nM.

Turning to “AGACTGCGGTTACCTTGTAGGCGATTAT [5334-8_32]”, the Kd is over 1000 nM.

The same data set, now with this note: n (P) = NapdU; SB18, 5 mM MgCl2, 37 C.
Consider “ACGGTACGATTTTCAGTTGGATCCAGTAC [5406-56_46]”, for which the dissociation constant Kd was determined as 8.14 nM.

“ACGGTACGATTTTCAGTTGGATCCAGTACC [5406-56_40]”: the Kd is 4.32 nM.

“ACGGTACGATTTTCAGTTGGATCCAGTACCT [5406-56_34]” registered a dissociation constant Kd of 3.36 nM.

As to “ACGGTACGATTTTCAGTTGGATCCAGTACCTG [5406-56_28]”, the Kd worked out at 3.64 nM.

Turning to “ATGGCGAACTCCCTGAATGCTCTTGTCTT [14125-144_29]”, the Kd turned out to be 11.6 nM.

The same data set, now with this note: n (P) = NapdU; Zorbax bead partitioning, SB18, 5 mM MgCl2, 37 C; printed sequence identical to _21 to _25, length unclear.
Sequence “ACGGTACGATTTTCAGTTGGATCCAGTACCTGG [5406-56_22]” showed an equilibrium dissociation constant (Kd) of 4.93 nM.

The same data set, now with this note: n (P) = NapdU; considered no binding.
Consider “ACTCCCTGAATGCTCTTGTCTTAAGTCCCCAACA [14125-144_11]”, for which the Kd is over 1000 nM.

Turning to “ATGGCGAACTCCCTGAATGCTCTTGTC [14125-144_37]”, the Kd was over 1000 nM.

Consider “ATGGCGAACTCCCTGAATGCTCTTGTCT [14125-144_33]”, for which the Kd was over 1000 nM.

The next data set relates to Immunoglobulin G (total IgG). The experiment in a line: pulldown. As to conditions: P = 2NapdU; SB18, 37C, bead partitioning.
For the sequence “AGACTGCGGTTACCTTGTAGGCGATTATGG [5334-8_31]”, the equilibrium dissociation constant (Kd) was over 1000 nM.

For the sequence “AGACTGCGGTTACCTTGTAGGCGATTATGGG [5334-8_30]”, the Kd was found to be 80.9 nM.

“AGACTGCGGTTACCTTGTAGGCGATTATGGGC [5334-8_29]” gave a Kd of 15.6 nM.

“AGACTGCGGTTACCTTGTAGGCGATTATGGGCAG [5334-8_11]” displayed a Kd of 4.69 nM.

“CGGCACTCCACATCCAAGACTGCGGTTACCTTGT [5334-8_19]” displayed a Kd of over 1000 nM.

On to “CGGCACTCCACATCCAAGACTGCGGTTACCTTGTAGGCGATT [5334-8_15]”, for which the Kd was over 1000 nM.

For “CGGCACTCCACATCCAAGACTGCGGTTACCTTGTAGGCGATTATGG [5334-8_13]”, the Kd was over 1000 nM.

Consider “CGGCACTCCACATCCAAGACTGCGGTTACCTTGTAGGCGATTATGGGC [5334-8_12]”, for which the equilibrium dissociation constant (Kd) was 25.8 nM.

For the sequence “CGGTTACCTTGTAGGCGATTATGGGCAG [5334-8_26]”, the Kd is over 1000 nM.

Turning to “CTGCGGTTACCTTGTAGGCGATTATGGGCAG [5334-8_23]”, the Kd stood at 4.04 nM.

Consider “GCACTCCACATCCAAGACTGCGGTTACCTTGTAGGCGATTATGGGCAG [5334-8_4]”, for which the Kd is 17.3 nM.

Regarding “GCGGTTACCTTGTAGGCGATTATGGGCAG [5334-8_25]”, the dissociation constant (Kd) worked out at 5.83 nM.

GGTTACCTTGTAGGCGATTATGGGCAG [5334-8_27] showed a Kd of 279 nM.

In turn, “TCCACATCCAAGACTGCGGTTACCTTGTAGGCGATTATGGGCAG [5334-8_6]” returned a Kd of 7.89 nM.

Staying with this data set, now noted: P = NapdU; SB18, 37C, bead partitioning.
In the case of “ACGATGGCGAACTCCCTGAATGCTCTTGTCTTAAGTCCCCAACA [14125-144_6]”, the Kd is 7.49 nM.

As for “ACGATTTTCAGTTGGATCCAGTACCTGGCTGGAGAGAA [5406-56_9]”, the Kd was over 1000 nM.

In turn, “CATACGGTACGATTTTCAGTTGGATCCAGTACCTGGCTGGAGAGAA [5406-56_5]” gave an equilibrium dissociation constant (Kd) of 7.91 nM. That is a single-digit nanomolar value.

Consider “CCTCCATACGGTACGATTTTCAGTTGGATCCAGT [5406-56_19]”, for which the Kd was over 1000 nM.

“CCTCCATACGGTACGATTTTCAGTTGGATCCAGTAC [5406-56_18]” came in with a dissociation constant Kd of 42.2 nM. That is a double-digit nanomolar value.

Take “CCTCCATACGGTACGATTTTCAGTTGGATCCAGTACCT [5406-56_17]”: the Kd turned out to be 4.14 nM.

On to “CCTCCATACGGTACGATTTTCAGTTGGATCCAGTACCTGG [5406-56_16]”, for which the Kd stood at 2.58 nM.

With “CCTCCATACGGTACGATTTTCAGTTGGATCCAGTACCTGGCT [5406-56_15]”, the dissociation constant Kd was 4.64 nM.

The sequence “CCTCCATACGGTACGATTTTCAGTTGGATCCAGTACCTGGCTGG [5406-56_14]” displayed a Kd of 3 nM.

“CCTCCATACGGTACGATTTTCAGTTGGATCCAGTACCTGGCTGGAG [5406-56_13]”: the equilibrium dissociation constant (Kd) is 2.61 nM.

In turn, “CCTCCATACGGTACGATTTTCAGTTGGATCCAGTACCTGGCTGGAGAG [5406-56_12]” returned an equilibrium dissociation constant (Kd) of 2.88 nM.

On to “CGGTACGATTTTCAGTTGGATCCAGTACC [5406-56_41]”, for which the Kd was 2.74 nM.

Consider “CGGTACGATTTTCAGTTGGATCCAGTACCTGGCTGGAGAGAA [5406-56_7]”, for which the Kd was determined as 13 nM.

Turning to “GAACTCCCTGAATGCTCTTGTCTTAAGTCCCCAACA [14125-144_10]”, the dissociation constant (Kd) is over 1000 nM.

“GATTTTCAGTTGGATCCAGTACCTGGCTGGAGAGAA [5406-56_10]” showed an equilibrium dissociation constant (Kd) of over 1000 nM.

With “GCCTGCACGATGGCGAACTCCCTGAATGCTCTTGTC [14125-144_18]”, the Kd was over 1000 nM.

“GCCTGCACGATGGCGAACTCCCTGAATGCTCTTGTCTT [14125-144_17]” registered a dissociation constant (Kd) of 15.4 nM.

Sequence “GCCTGCACGATGGCGAACTCCCTGAATGCTCTTGTCTTAAGT [14125-144_15]” returned a Kd of 14.6 nM.

The sequence “GCGAACTCCCTGAATGCTCTTGTCTTAAGTCCCCAACA [14125-144_9]” registered a Kd of over 1000 nM.

“GGCGAACTCCCTGAATGCTCTTGTCTT [14125-144_31]” returned a dissociation constant Kd of over 1000 nM.

As for “GGCGAACTCCCTGAATGCTCTTGTCTTA [14125-144_27]”, the Kd is over 1000 nM.

Sequence “GGCGAACTCCCTGAATGCTCTTGTCTTAA [14125-144_23]” came in with a Kd of over 1000 nM.

In turn, GTACGATTTTCAGTTGGATCCAGTAC [5406-56_49] displayed a Kd of 17.6 nM. This lies in the double-digit nanomolar range.

Take “GTACGATTTTCAGTTGGATCCAGTACCT [5406-56_37]”: the dissociation constant Kd came to 9.44 nM.

The sequence “GTACGATTTTCAGTTGGATCCAGTACCTG [5406-56_31]” gave a dissociation constant Kd of 14.8 nM. This Kd lies about 1.6-fold higher than the previous one.

Consider “GTACGATTTTCAGTTGGATCCAGTACCTGGCTGGAGAGAA [5406-56_8]”, for which the Kd is 78.1 nM.

Sequence TACGATTTTCAGTTGGATCCAGTACC [5406-56_44] returned an equilibrium dissociation constant (Kd) of 36.2 nM.

With “TACGATTTTCAGTTGGATCCAGTACCT [5406-56_38]”, the dissociation constant Kd is over 1000 nM.

“TACGATTTTCAGTTGGATCCAGTACCTG [5406-56_32]” came in with a Kd of 75.4 nM.

“TACGATTTTCAGTTGGATCCAGTACCTGG [5406-56_26]” registered a dissociation constant Kd of 64.3 nM.

As to “TACGGTACGATTTTCAGTTGGATCCAGTACCTGGCTGGAGAGAA [5406-56_6]”, the dissociation constant (Kd) amounted to 9.05 nM.

For “TCCATACGGTACGATTTTCAGTTGGATCCAGTACCTGGCTGGAGAGAA [5406-56_4]”, the dissociation constant Kd was found to be 3.11 nM.

Turning to “TGGCGAACTCCCTGAATGCTCTTGTC [14125-144_38]”, the Kd was over 1000 nM.

As to “TGGCGAACTCCCTGAATGCTCTTGTCT [14125-144_34]”, the Kd was over 1000 nM.

“TGGCGAACTCCCTGAATGCTCTTGTCTTA [14125-144_26]” gave a Kd of 5.03 nM.

“TGGCGAACTCCCTGAATGCTCTTGTCTTAA [14125-144_22]” had a Kd of 3.55 nM.

“TGGCGAACTCCCTGAATGCTCTTGTCTTAAGTCCCCAACA [14125-144_8]” displayed a Kd of 6.82 nM. Compared with the last sequence, the Kd is about 1.9-fold higher.

The sequence “TTTTCAGTTGGATCCAGTACCTGGCTGGAGAGAA [5406-56_11]” yielded a dissociation constant Kd of over 1000 nM.

Still in this data set, the particulars now being: P = NapdU; SB18, 37C; 25-mer core.
Consider TACGATTTTCAGTTGGATCCAGTAC [5406-56_50], for which the Kd came to 18.8 nM.

The same data set, now with this note: P = NapdU; SB18, 37C; table prints a shorter sequence than the listing for SEQ 18.
Take “TACGGTACGATTTTCAGTTGGATCCAGTACCTGG [5406-56_21]”: the dissociation constant (Kd) came out at 8.13 nM.
